# According to US20230071019A1 (RESEARCH FOUNDATION FOR THE STATE UNIVERSITY OF NEW YORK, published 2023):
# Changes are numbered by the printed parent chain.
# B1: T3H3 (VHH)
# VHH: EVQLVESGGGLVQPGGSLRLSCAASGRTFSHDHMGWFRQAPGKEREFVAAISWTSSTYYGDSVKGRFTISRSNAKNTVYLQMNSLKPEDTAIYYCSWGVGYWGQGTQVTVSS
# notes: tested as phage media; also called DT3H3
# B2: T3B5 (VHH)
# VHH: QVQLVQSGGGLVQPGGSLRLSCTASGRTFSRYTMGWFRQAPGKEREFVAAISTGGLRQYFGDSVRGRCTISRDNAKSTVYLQMDSLKPEDTAVYYCAANWGTSYYWGQGTQVTVSS
# notes: tested as phage media; also called DT3B5
# B3: Anti-Exatecan sdAb TF7 clone (VHH)
# VHH: QVQLQESGGGLAQPGGSLRVSCATSGFTFSSNYYISWVRQAPGRGLEWVSAINTGDGSTYYAHSVKGRFTISRDNAKNTLYLQMNSLKPEDTALYYCARSSLEGRIEKPYDYWGQGTQVTVSS
# notes: Llama single domain antibody; also called anti-camptothecin sdAb (TF7)
# B4: Anti-DM1/DM4 sdAb DF4B12 clone (VHH)
# VHH: EVQLVESGGGLVQPGGSLRLSCAASGSIFGISYMGWYRQAPGKQREPVALITSGGDTAYGDSVKGRFTISRDNAKNTVYLQMNSLTPEDTSTFYCAAGFYRSDSPNRYDYWGQGTQVTVSS
# notes: Purified sdAb; tag not described
# B5: Anti-DM1/DM4 sdAb DF3A4 clone (VHH)
# VHH: B4 VHH with E1Q, V5Q, D56S, A58Y, G60A, F67V, N76K, T86R, F93Y
# notes: as for B4
# B6: Anti-DM1/DM4 sdAb DF3A2 clone (VHH)
# VHH: B4 VHH with E1Q, V5Q, S27G, T68A, T86K, E88D, T92A, F93Y
# notes: also called sdAb 3A2
# B7: T3B3 (VHH)
# VHH: EVQLVESGGGLVQAGGSLRLSCALSGGTLRSYTMGWIRQAPGKEREFVAGNRWSGGRTYYADSVKGRFTISGDNAENTVYLQMNSLKPEDTAVYYCTADVTEYGEDSSAYWGRGTQVTVSS
# notes: tested as phage media; also called DT3B3
# B8: T3B4 (VHH)
# VHH: QVQLQESGGGLVQAGDSLRLSCTASGRTFSRYTMGWFRQAPGKEREFVAAISTGGLRQYFGDSVRGRCTISRDNAKNTVYLQMDSLKPEDTAVYYCAATGNEYHWGRGTQVTVSS
# notes: tested as phage media; also called DT3B4
# B9: Anti-Calicheamicin sdAb CG4 clone (VHH)
# VHH: QVQLQESGGGLVQAGGSLRLSCAASGRTISGYAMGWFRQAPGKERDLVAAISRSGTSTYYADSVKGRFTISRDNAKNTVYLQMNSLKPEDTAVYYCNAPGGIWGQGTQVTVSS
# Tests used:
# [1] = target: T1, avidin (UniProt P02701 25-152); experiment: phage ELISA on avidin coat without biotin-DM1
# T1 construct: Negative-control coat; also called avidin alone
# [2] = target: T2, exatecan conjugated BSA (bovine, UniProt P02769 25-607, exatecan conjugated to BSA; chemistry and sites not stated); experiment: SPR, kinetic fit, BSA-conjugated exatecan on the chip
# T2 construct: Hapten-carrier conjugate immobilised on the SPR chip; also called BSA conjugated Exatecan
# [3] = target: T3, ado-trastuzumab emtansine; experiment: SPR, kinetic assessment, immobilized T-DM1
# T3 construct: Antibody-drug conjugate immobilised on a CM5 SPR chip; also called TDM1; T-DM1
# [4] = target: T3, ado-trastuzumab emtansine; experiment: SPR, equilibrium binding, TDM1 on a CM5 chip, 3A2 injected at 1.25-400 nM
# Method: (§1) Preliminary screening of DM1/4 binders were performed using a neutravidin SPR chip with DM1-Biotin on the left channel. Phagemid purified sdAbs were flowed over the SPR chip for 2 minutes at a flow rate of 25 ul/min. After binding, sdAb was dissociated for 20 minutes. Observed sensorgrams were fit to an individual dissociation rate constant for each construct. Equilibrium and kinetic binding of 3A2 was assessed using a CM5 SPR chip with TDM1 immobilized on the left channel. […] Rate constants for 3A2-TDM1 association and dissociation were obtained through fitting of the observed sensorgrams for the 1.25, 2.5, 5, 7.5 and 10 nM injections to a 1:1 Langmuir binding model.
# (§2) Anti-DM1/DM4 sdAb DF3A2 clone. […] DNA encoding for 3A2 was synthesized and expressed in the E. coli strain SHuffle and purified using nickel chromatography. Purified 3A2 was used to assess TDM1 binding using SPR. […] To obtain a secondary measure of binding kinetics sdAb injected at concentrations between 1.25-10 nM were fit to a 1:1 Langmuir binding model to obtain association and dissociation rate constants.
# [5] = target: T3, ado-trastuzumab emtansine; experiment: SPR, kinetic fit (1:1 Langmuir), TDM1 on a CM5 chip, 3A2 injected at 1.25-10 nM
# Method: as §1, §2
# [6] = target: T4, Cetuximab-calicheamicin conjugate; experiment: competitive ELISA on cetuximab-calicheamicin coated plates, 64 µM CG4 with or without 10 µM free calicheamicin
# T4 construct: also called Cetuximab-calicheamcin conjugate; ADC (coated ELISA)
# Method: (§3) Nunc Maxisorp 96-well plates were coated with 4 μg/ml Cetuximab or Cetuximab-calicheamicin, or 5 μg/ml Avidin. Plates were washed three times with PBST and three times with dH2O, and blocked with MPBS for 2 h at RT. For the Avidin coated plates, plates were washed three times with PBST and incubated with 1 μM Biotin-Calicheamcin. […] Plates were then washed three times with PBST, where bound sdAb was detected using an anti-His tag HRP-conjugated Ab diluted 1:1000 in MPBST. Following incubated and five washed with PBST, 100 μL of 1-Step Turbo TMB-ELISA solution was added to each well and incubated for 30 minutes. The reaction was quenched by adding 100 μL of Stop solution to each well and absorbance was measured at 450 nm. Alternatively, wells can also be incubated with 1:1000 diluted anti-His tag AP-conjugated Ab, instead of HRP conjugated Ab.
# [7] = target: T5, cetuximab; experiment: ELISA, purified CG4 on unconjugated cetuximab coat, anti-His HRP detection
# T5 construct: not shown: the constant regions
# Method: as §3
# [8] = target: T4, Cetuximab-calicheamicin conjugate; experiment: competitive ELISA on cetuximab-calicheamicin coated plates, corrected for background
# Method: as §3
# T1 sequence (P02701 25-152 limits assumed): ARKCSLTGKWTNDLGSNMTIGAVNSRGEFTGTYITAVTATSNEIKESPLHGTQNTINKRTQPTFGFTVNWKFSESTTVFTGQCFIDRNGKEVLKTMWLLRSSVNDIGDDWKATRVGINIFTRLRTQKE
# T2 sequence (P02769 25-607 limits assumed): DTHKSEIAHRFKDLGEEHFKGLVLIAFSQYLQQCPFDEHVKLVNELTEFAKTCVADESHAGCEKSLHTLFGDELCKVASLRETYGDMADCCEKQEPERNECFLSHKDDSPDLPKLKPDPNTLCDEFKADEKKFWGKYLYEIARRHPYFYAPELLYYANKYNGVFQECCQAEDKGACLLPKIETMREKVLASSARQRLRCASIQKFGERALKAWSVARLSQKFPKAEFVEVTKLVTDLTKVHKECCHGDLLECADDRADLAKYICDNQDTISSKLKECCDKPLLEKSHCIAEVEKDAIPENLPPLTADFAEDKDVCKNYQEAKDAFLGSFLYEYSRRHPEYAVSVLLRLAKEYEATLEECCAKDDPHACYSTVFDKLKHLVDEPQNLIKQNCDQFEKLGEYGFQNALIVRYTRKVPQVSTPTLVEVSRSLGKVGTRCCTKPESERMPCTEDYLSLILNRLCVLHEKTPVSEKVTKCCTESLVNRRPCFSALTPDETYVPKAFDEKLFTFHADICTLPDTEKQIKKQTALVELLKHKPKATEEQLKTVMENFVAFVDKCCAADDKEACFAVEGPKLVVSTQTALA
binder,measurement,setting,value
B1,binding result,[1],no binding
B2,binding result,[1],no binding
B3,Kd,[2],10 nM
B4,Kd,[3],4.33 nM
same,binding result,[1],no binding
B5,Kd,[3],5.59 nM
same,binding result,[1],no binding
B6,Kd,[4],25 nM
same,Kd,[5],12.3 nM
same,binding result,[1],no binding
B7,binding result,[1],no binding
B8,binding result,[1],no binding
B9,fold decrease of ELISA signal on addition of 10 µM free calicheamicin,[6],2.5 fold
same,binding result,[7],binds
same,"fold decrease of ELISA signal on addition of 10 µM free calicheamicin, corrected for background",[8],~3.3 fold
